Laboratory results published in article PMC10397247.

Columns and labels:
Test in all cases: two-hybrid library CCmax;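 note: natural log of median RNA to DNA barcode read ratio; higher means stronger binding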
4H1388-AA = target: T1, 4H1388-AA
T1 chain: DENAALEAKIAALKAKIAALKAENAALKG

4H1401-AA = target: T2, 4H1401-AA; conditions: mean of both orientations
T2 chain: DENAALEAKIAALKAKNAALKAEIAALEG

4H1513-AA = target: T3, 4H1513-AA; conditions: mean of both orientations
T3 chain: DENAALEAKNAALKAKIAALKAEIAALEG

4H1594-AA = target: T4, 4H1594-AA; conditions: mean of both orientations
T4 chain: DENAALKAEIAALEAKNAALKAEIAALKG

4H1629-AA = target: T5, 4H1629-AA; conditions: mean of both orientations
T5 chain: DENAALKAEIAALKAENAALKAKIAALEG

4H1845-AA = target: T6, 4H1845-AA; conditions: mean of both orientations
T6 chain: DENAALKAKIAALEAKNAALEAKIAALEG

4H1874-AA = target: T7, 4H1874-AA; conditions: mean of both orientations
T7 chain: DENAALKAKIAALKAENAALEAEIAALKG

4H2198-AA = target: T8, 4H2198-AA; conditions: mean of both orientations
T8 chain: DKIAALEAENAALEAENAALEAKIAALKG

4H2553-AA = target: T9, 4H2553-AA; conditions: mean of both orientations
T9 chain: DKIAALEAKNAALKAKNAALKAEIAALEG

4H2611-AA = target: T10, 4H2611-AA; conditions: mean of both orientations
T10 chain: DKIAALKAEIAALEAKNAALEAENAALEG

4H2620-AA = target: T11, 4H2620-AA; conditions: mean of both orientations
T11 chain: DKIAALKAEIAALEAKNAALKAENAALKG

4H2648-AA = target: T12, 4H2648-AA; conditions: mean of both orientations
T12 chain: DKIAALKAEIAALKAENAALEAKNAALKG

4H2907-AA = target: T13, 4H2907-AA; conditions: mean of both orientations
T13 chain: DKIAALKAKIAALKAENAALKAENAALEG

4H3056-AA = target: T14, 4H3056-AA; conditions: mean of both orientations
T14 chain: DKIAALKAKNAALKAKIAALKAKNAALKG

4H3133-AA = target: T15, 4H3133-AA; conditions: mean of both orientations
T15 chain: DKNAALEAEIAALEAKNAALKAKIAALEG

4H3162-AA = target: T16, 4H3162-AA; conditions: mean of both orientations
T16 chain: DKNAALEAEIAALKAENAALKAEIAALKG

4H32-AA = target: T17, 4H32-AA; conditions: mean of both orientations
T17 chain: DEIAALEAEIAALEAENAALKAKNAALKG

4H3378-AA = target: T18, 4H3378-AA; conditions: mean of both orientations
T18 chain: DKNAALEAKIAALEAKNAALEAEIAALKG

4H340-AA = target: T19, 4H340-AA; conditions: mean of both orientations
T19 chain: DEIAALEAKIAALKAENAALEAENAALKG

4H3413-AA = target: T20, 4H3413-AA; conditions: mean of both orientations
T20 chain: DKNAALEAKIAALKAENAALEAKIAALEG

4H3588-AA = target: T21, 4H3588-AA; conditions: mean of both orientations
T21 chain: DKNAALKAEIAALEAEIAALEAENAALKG

4H3606-AA = target: T22, 4H3606-AA; conditions: mean of both orientations
T22 chain: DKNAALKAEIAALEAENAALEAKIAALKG

4H3631-AA = target: T23, 4H3631-AA; conditions: mean of both orientations
T23 chain: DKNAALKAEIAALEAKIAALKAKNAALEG

4H3697-AA = target: T24, 4H3697-AA; conditions: mean of both orientations
T24 chain: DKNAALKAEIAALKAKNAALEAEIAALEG

4H3718-AA = target: T25, 4H3718-AA; conditions: mean of both orientations
T25 chain: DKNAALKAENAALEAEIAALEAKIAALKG

4H384-AA = target: T26, 4H384-AA; conditions: mean of both orientations
T26 chain: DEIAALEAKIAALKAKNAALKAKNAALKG

4H3865-AA = target: T27, 4H3865-AA; conditions: mean of both orientations
T27 chain: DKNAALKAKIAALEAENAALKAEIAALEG

4H697-AA = target: T28, 4H697-AA; conditions: mean of both orientations
T28 chain: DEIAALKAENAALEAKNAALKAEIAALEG

4H982-AA = target: T29, 4H982-AA; conditions: mean of both orientations
T29 chain: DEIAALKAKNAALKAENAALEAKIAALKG

DENAALEAKIAALKAKIAALKAENAALKG [4H1388-AA] was tested, and the interaction score (4H1388-AA) was -0.698, the interaction score (4H1401-AA) was -2 and the interaction score (4H1513-AA) was -0.0302. The interaction score (4H1594-AA) was -1.66, the interaction score (4H1629-AA) was -1.24 and the interaction score (4H1845-AA) was -1.71. The interaction score (4H1874-AA) was -1.59, the interaction score (4H2198-AA) was -1.08 and the interaction score (4H2553-AA) was -1.78. The interaction score (4H2611-AA) was -0.829, the interaction score (4H2620-AA) was -0.0212 and the interaction score (4H2648-AA) was -0.194. The interaction score (4H2907-AA) was -0.775, the interaction score (4H3056-AA) was -1.68 and the interaction score (4H3133-AA) was -1.57. The interaction score (4H3162-AA) was -1.45, the interaction score (4H32-AA) was 2.52 and the interaction score (4H3378-AA) was -1.68. The interaction score (4H340-AA) was -0.251, the interaction score (4H3413-AA) was -1.7 and the interaction score (4H3588-AA) was 2.13. For the same binder, the interaction score (4H3606-AA) was 0.583, the interaction score (4H3631-AA) was 0.242 and the interaction score (4H3697-AA) was -1.77. It also gave an interaction score (4H3718-AA) of -0.0337, an interaction score (4H384-AA) of -0.356 and an interaction score (4H3865-AA) of -1.23. It also gave an interaction score (4H697-AA) of -1.54 and an interaction score (4H982-AA) of -2.08.
